Four sequences from the supplement of paper PMC5998384 can be followed below.

Data set [1] relates to HeLa Kyoto. Put plainly: thermal stability score vs G1/S (z-score of summed log2 fold changes over temperatures); higher = more thermally stable than in G1/S.
Data set [2] concerns HeLa Kyoto. Kind of data set: solubility change mitosis vs G1/S (difference of NP-40 vs SDS log2 ratios) (log2 ratio difference); higher = more soluble in mitosis.
Data set [3] relates to HeLa Kyoto. Put plainly: solubility in G1/S (NP-40 vs SDS abundance) (log2 ratio); higher = more soluble. The note with it: cell cycle stage: G1/S.
Data set [4] relates to HeLa Kyoto. Kind of data set: melting temperature (median over replicates), in situ; higher = more thermally stable.
The mark [5] stands for this setting: cell cycle stage: early G1 (4.5 h after nocodazole release).
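For melting temperature (median over replicates), in situ in this document: HeLa Kyoto cells synchronized by double thymidine or nocodazole block, proteins quantified by TMT10plex mass spectrometry, three independent biological replicates.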
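For solubility change mitosis vs G1/S (difference of NP-40 vs SDS log2 ratios) in this document: synchronized HeLa Kyoto cells (double thymidine block for G1/S, nocodazole release for mitosis), protein amounts in NP-40 versus SDS lysates quantified by mass spectrometry, three biological replicates.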
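For solubility in G1/S (NP-40 vs SDS abundance) in this document: HeLa Kyoto cells arrested at G1/S by double thymidine block, proteins quantified by TMT10plex mass spectrometry in mild NP-40 versus SDS extracts, three biological replicates.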
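For thermal stability score vs G1/S (z-score of summed log2 fold changes over temperatures) in this document: synchronized HeLa Kyoto cells, proteins quantified by TMT10plex mass spectrometry, three biological replicates, mitosis taken 0.5 h after nocodazole release, G1/S directly after double thymidine block.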

For “MGAAHSASEEVRELEGKTGFSSDQIEQLHRRFKQLSGDQPTIRKENFNNVPDLELNPIRSKIVRAFFDNRNLRKGPSGLADEINFEDFLTIMSYFRPIDTTMDEEQVELSRKEKLRFLFHMYDSDSDGRITLEEYRNVVEELLSGNPHIEKESARSIADGAMMEAASVCMGQMEPDQVYEGITFEDFLKIWQGIDIETKMHVRFLNMETMALCH [TESC]”, the thermal stability score in data set [1] (setting [5]) was 0.145; in data set [1] (cell cycle stage: mitosis), 1.31. Besides, the “solubility change mitosis (log2)” value in data set [2] was 0.0705. Besides, in data set [3], the “solubility in G1/S (log2)” value was 0.101. For the same sequence, the values for the melting temperature in data set [4] (cell cycle stage: G1/S) and in data set [4] (cell cycle stage: mitosis) were 51.1 °C and 51.7 °C, respectively.

Consider “MGAFLDKPKMEKHNAQGQGNGLRYGLSSMQGWRVEMEDAHTAVIGLPSGLESWSFFAVYDGHAGSQVAKYCCEHLLDHITNNQDFKGSAGAPSVENVKNGIRTGFLEIDEHMRVMSEKKHGADRSGSTAVGVLISPQHTYFINCGDSRGLLCRNRKVHFFTQDHKPSNPLEKERIQNAGGSVMIQRVNGSLAVSRALGDFDYKCVHGKGPTEQLVSPEPEVHDIERSEEDDQFIILACDGIWDVMGNEELCDFVRSRLEVTDDLEKVCNEVVDTCLYKGSRDNMSVILICFPNAPKVSPEAVKKEAELDKYLECRVEEIIKKQGEGVPDLVHVMRTLASENIPSLPPGGELASKRNVIEAVYNRLNPYKNDDTDSTSTDDMW [PPM1A]”, for which the thermal stability score in data set [1] (setting [5]) is 0.1; in data set [1] (cell cycle stage: mitosis) it was -0.132. Also, the “solubility change mitosis (log2)” value in data set [2] was -0.159. In data set [3], the “solubility in G1/S (log2)” value worked out at 0.243. The figures for the melting temperature in data set [4] (cell cycle stage: G1/S) and in data set [4] (cell cycle stage: mitosis) were 51.9 °C and 52 °C, respectively.

For the sequence “MGALRPTLLPPSLPLLLLLMLGMGCWAREVLVPEGPLYRVAGTAVSISCNVTGYEGPAQQNFEWFLYRPEAPDTALGIVSTKDTQFSYAVFKSRVVAGEVQVQRLQGDAVVLKIARLQAQDAGIYECHTPSTDTRYLGSYSGKVELRVLPDVLQVSAAPPGPRGRQAPTSPPRMTVHEGQELALGCLARTSTQKHTHLAVSFGRSVPEAPVGRSTLQEVVGIRSDLAVEAGAPYAERLAAGELRLGKEGTDRYRMVVGGAQAGDAGTYHCTAAEWIQDPDGSWAQIAEKRAVLAHVDVQTLSSQLAVTVGPGERRIGPGEPLELLCNVSGALPPAGRHAAYSVGWEMAPAGAPGPGRLVAQLDTEGVGSLGPGYEGRHIAMEKVASRTYRLRLEAARPGDAGTYRCLAKAYVRGSGTRLREAASARSRPLPVHVREEGVVLEAVAWLAGGTVYRGETASLLCNISVRGGPPGLRLAASWWVERPEDGELSSVPAQLVGGVGQDGVAELGVRPGGGPVSVELVGPRSHRLRLHSLGPEDEGVYHCAPSAWVQHADYSWYQAGSARSGPVTVYPYMHALDTLFVPLLVGTGVALVTGATVLGTITCCFMKRLRKR [IGSF8]”, the thermal stability score in data set [1] (setting [5]) was -2.98; in data set [1] (cell cycle stage: mitosis) it was -1.56. Also, the “solubility change mitosis (log2)” value in data set [2] was -0.0392. In data set [3], the “solubility in G1/S (log2)” value was -0.0809. Further, the melting temperature in data set [4] (cell cycle stage: G1/S) came to 56.3 °C; in data set [4] (cell cycle stage: mitosis), 54.7 °C.

On to “MGDAKEAGAEGPPAGAAARGGLSLLSQGESEESSAQGSALFLGGNEVKSRAVVKYSSAPPRTAFARLEEKTDLKLPPANWLRESAKLGPAGTTILGNSKKSKPFSSFGMAYDFIDSVGNDVDVVSDSENIKKLLKIPYSKSHVSMAVHRIGRTLLLDELDIQELFMRSSQTGDWTWLKEFYQRLIDQKWQRKKKSKEHWYQKAILSKFLYYSINGDGAAQPVSSTAEQQESSSSDQTNDSEGASWPAPFEMPSSVSEDPSASSQGSEPLEPSYIVGHVASAPKEQNLITLFNDGEHSQGLKNDFVRNILWTFEDIHMLVGSNMPIFGGGRYPAVSLRLRDNNKPINVLTGIDYWLDNLICNVPELVMCFHVNGIVQKYEMIKTEEIPNLENSNFSTKVIKDIAQNILSFLKSNCTKEGHTYWLFKASGSDIVKLYDLTTLCEETEDKYQNPFTMPVAILLYKVACNMMMKKNQNKKHYGTIRTLLLNCLKLLDKSRHPQIIASANYMLSELFQLDEPKKEENSESPLNENSDESYSEEEEEMPDSDENGSYSTSSDPSDDSKAVAIIKSVGELSVPEKYKSIHQIRPSCAFPVCHDTEERCRLVLSYVLEGLKSVDSSIKKESDLPAADPSTPIPLKYEDESSRGGPEGLEKQMALFLDKMGSLQKGNYSSQSGMIPGSWQHKMKLQLILKSSKAYYVLSDAAMSLQKYGRALRYIKLALQSHDTYCCLCTNMLSEVLLFLSQYLTLCGDIQLMLAQNANNRAAHLEEFHYQTKEDQEILHSLHRESSCQGFAWATDLSTDLESQLSVSCKCYEAANEILQFSDLKSQNPEHYVQVLKRMGNIRNEIGVFYMNQAAALQSERLVSKSVSAAEQQLWKKSFSCFEKGIHNFESIEDATNAALLLCNTGRLMRICAQAHCGAGDELKREFSPEEGLYYNKAIDYYLKALRSLGTRDIHPAVWDSVNWELSTTYFTMATLQQDYAPLSRKAQEQIEKEVSEAMMKSLKYCDVDSVSARQPLCQYRAATIHHRLASMYHSCLRNQVGDEHLRKQHRVLADLHYSKAAKLFQLLKDAPCELLRVQLERVAFAEFQMTSQNSNVGKLKTLSGALDIMVRTEHAFQLIQKELIEEFGQPKSGDAAAAADASPSLNREEVMKLLSIFESRLSFLLLQSIKLLSSTKKKTSNNIEDDTILKTNKHIYSQLLRATANKTATLLERINVIVHLLGQLAAGSAASSNAVQ [EDRF1]”, for which the thermal stability score was 0.416 in data set [1] (setting [5]) and -0.168 in data set [1] (cell cycle stage: mitosis). The “solubility change mitosis (log2)” value in data set [2] is -0.0878. Further, the “solubility in G1/S (log2)” value in data set [3] was -0.026. The melting temperature in data set [4] (cell cycle stage: G1/S) was found to be 51 °C; in data set [4] (cell cycle stage: mitosis), 49.3 °C.
